Source: patent US12258584B2, “Methods and systems for converting precursor cells into intestinal tissues through directed differentiation” (Children's Hospital Medical Center, priority 2010, dated 2025)

B1: ActivinA: nodal-related TGFβ molecule (R&D systems) used to differentiate PSCs into definitive endoderm (protein, UniProt P08476 311-426, looked up)
Inhibin beta A chain: GLECDGKVNICCKKQFFVSFKDIGWNDWIIAPSGYHANYCEGECPSHIAGTSGSSLSFHSTVINHYRMRGHSPFANLKSCCVPTKLRPMSMLYYDDGQNIIKKDIQNMIVEECGCS
B2: Noggin: the BMP antagonist Noggin (R&D Systems) (protein, UniProt Q13253 28-232, looked up)
Noggin: QHYLHIRPAPSDNLPLVDLIEHPDPIFDPKEKDLNETLLRSLLGGHYDPGFMATSPPEDRPGGGGGAAGGAEDLAELDQLLRQRPSGAMPSEIKGLEFSEGLAQGKKQRLSKKLRRKLQMWLWSQTFCPVLYAWNDLGSRFWPRYVKVGSCFSKRSCSVPEGMVCKPSKSVHLTVLRWRCQRRGGQRCGWIPIQYPIISECKCSC

Tests used:
[1] = system: hESCs and iPSCs; assay: Definitive endoderm induction, SOX17/FOXA2 immunofluorescence; assay type: cell-based, human; settings: ActivinA 100 ng/ml for 3 days
Method: Differentiation of PSCs into Definitive Endoderm (DE). Differentiation into Definitive Endoderm was carried out as previously described. Briefly, a 3 day ActivinA (R&D systems) differentiation protocol was used. Cells were treated with ActivinA (100 ng/ml) for three consecutive days in RPMI 1640 media (Invitrogen) with increasing concentrations of 0%, 0.2%, 2% HyClone defined FBS (dFBS) (Thermo Scientific).
Directing Hindgut Development of PSCs. As a first step to generating intestinal tissue, nodal-related TGFβ molecule activinA was used to promote differentiation of PSCs into DE as previously published. […]
FIGS. 6a and 6b illustrate exemplary embodiments in accordance with the present invention, depicting characterization of DE formation from hESC and iPSC lines by immuno-fluorescence (IF) and Microarray analysis. […] (b) Transcriptional profile of DE induction. hESC-H9 and iPSC lines 3.5, 3.6 and 3.12 were analyzed before and after DE formation (activin differentiation) by Affymetrix DNA microarray analysis.
Tissues were fixed for 1 hour to overnight in 4% paraformaldehyde or 3% glutaraldehyde for transmission electron microscopy (TEM). […] Slides were washed and mounted using Fluormount-G. Confocal images were captured on a Zeiss LSM510 and Z-stacks were analyzed and assembled using AxioVision software. […]

[2] = system: H9-HES cells differentiated into definitive endoderm; assay: Posteriorization of definitive endoderm: foregut (ALB, PDX1) and hindgut (CDX2) marker expression by RT-qPCR and immunofluorescence; assay type: cell-based, human
Method: Differentiation of DE in Permissive Media (Differentiation Protocol for FIG. 1). After differentiation into definitive endoderm, cells were incubated in DMEM/F12 plus 2% defined fetal bovine serum (dFBS) with either 0, 50, or 500 ng/ml of FGF4 and/or 0, 50, or 500 ng/ml of Wnt3a (R&D Systems) for 6, 48, or 96 hours. Cultures were then grown in permissive media consisting of DMEM plus 10% fetal bovine serum (FBS) for an additional 7 days.
FIGS. 1a through 1d illustrate exemplary embodiments of the present invention. FGF4 and Wnt3a act synergistically in a temporal and dose-dependent manner to specify stable posterior endoderm fate. ActivinA (100 ng/ml) was used to differentiate H9-HES cells into definitive endoderm (DE). DE was treated with the posteriorizing factors FGF4 (50, 500 ng), Wnt3a (50, 500 ng) or both for 6, 48 or 96 hours. Cells were then cultured in a permissive medium without growth factors for an additional seven days and analyzed for expression of foregut markers (ALB, PDX1) and the hindgut marker (CDX2) by RT-qPCR (a) and immunofluorescence (b-d). FGF4/Wnt-mediated changes in marker expression in (a) is relative to 3-day activin treated DE cultures that were grown for identical lengths of time in the absence of FGF4 or Wnt3a (control). […] Error bars denote standard deviation of triplicates. Significance is shown by; * (p<0.05), ^ (p<0.001), # (p<0.0001).
FIGS. 7a and 7b illustrate exemplary embodiments in accordance with the present invention, depicting time and concentration dependent induction of CDX2 by FGF4 and Wnt3a. (a) FGF4 and Wnt3a up-regulate CDX2 in a concentration dependant manner. 3-day ActivinA treated hESCs were treated for 48 hours with Wnt3a at 50 ng/ml or 500 ng/ml or FGF4 at 50 ng/ml or 500 ng/ml, or increasing concentrations of FGF4+Wnt3a. Cells were analyzed after 48 hours of treatment. […] CDX2 expression was normalized to the internal control beta-tubulin, and is shown relative to a 48 hour control cultured in the absence of growth factors. (b) FGF4 and Wnt3a up-regulate CDX2 in a time dependant manner. 48 hours of exposure to FGF4+Wnt3a was required for the most robust induction of CDX2. All time points shown are set relative to a 0 hour no growth factor control. 500 ng/ml of FGF4, Wnt3a or FGF4+Wnt3a was used for all time points. Note that 24 hour and 48 controls, in the absence of growth factors, show a significant and spontaneous up-regulation of CDX2. Error bars denote standard deviation of triplicates. Significance is shown by; * (p<0.05)
RNA was isolated using the Nucleospin II RNA isolation kit (Clonetech). […] Finally, qPCR was carried out using Quantitect SybrGreen MasterMix (Qiagen) on a Chromo4 Real-Time PCR (BioRad). […]

[3] = system: definitive endoderm from human embryonic and induced pluripotent stem cells; assay: Foregut/hindgut patterning of definitive endoderm by WNT, FGF, BMP and RA signaling (Cdx2, Sox2, HHex, Cerberus expression); assay type: cell-based
Method: Following definitive endoderm (DE) induction with activin (100 ng/ml) for 3 days, a 2-4 day treatment was performed with the indicated combination of factors: Wnt3a (500 ng/ml) and Fgf4 (500 ng/ml), Retinoic acid (RA) in a range of 0.2-20 μM the BMP antagonist Noggin (50 ng/ml), the WNT antagonist […] (1-500 ng/ml).
In particular, FIGS. 14B and 14D depict the activation of FGF/WNT/BMP signaling promotes posterior/hindgut fate as indicated by expression of Cdx2. […] Activation of FGF/WNT/BMP signaling represses foregut fate as indicated by expression of Sox2 (FIG. 14C).
The effects of Retinoic Acid in promoting hindgut differentiation in a BMP dependent manner (FIGS. 15A-15D). […] Similar comparison was also performed by immunostaining (FIGS. 15C and 15D). Activation of RA signaling promotes posterior/hindgut fate as indicated by expression of Cdx2 and represses foregut fate as indicated by expression of Sox2. Immunostaining in FIG. 15C is quantified in FIG. 15D using an automated cell counting program.

[4] = system: intestinal organoids; assay: Intestinal regionalization of hindgut spheroids in 3D matrigel culture with BMP or noggin; assay type: cell-based, human; settings: added after the hindgut stage to EGF/Rspondid1 containing media; organoids analyzed after 28 days
Method: For investigating the impact of BMP signaling on intestinal regionalization after hindgut formation, hindgut spheroids were plated in matrigel and BMP or noggin were added to EGF/Rspondid1 containing media. Intestinal organoids were analyzed after 28 days.

| Molecule | cells co-expressing the DE markers SOX17 and FOXA2 [1] | cells co-expressing the DE markers SOX17 and FOXA2 ([1]; listed as Activin) | competence of DE cultures to form foregut and hindgut lineages ([2]; activinA for only 3-days, then seven days in permissive conditions) | competence of DE cultures to form foregut and hindgut lineages ([2]; prolonged activin treatment for 4-5 days) | Wnt/Fgf-induced Cdx2 expression ([3]; Noggin 50 ng/ml with Wnt3a 500 ng/ml and Fgf4 500 ng/ml, 2-4 day treatment after DE induction) | Retinoic acid (RA)-induced posteriorization, Cdx2 expression ([3]; addition of Noggin to Retinoic acid treatment) | hindgut and foregut fate (Cdx2, Sox2 expression) ([3]; repression of BMP signaling with noggin) | regional intestinal fate [4] |
| --- | --- | --- | --- | --- | --- | --- | --- | --- |
| B1 | 80-90% | up to 90% | competent to develop into both foregut (Albumin+ and Pdx1+) and hindgut (Cdx2) lineages | intrinsically anterior in character and not as competent to form posterior lineages | – | – | – | – |
| B2 | – | – | – | – | completely abolishes the Wnt/Fgf-induced Cdx2 expression | potently inhibits Cdx2 expression | suppresses hindgut fate and promotes foregut fate | promotes a proximal intestinal fate (duodenum/jejunum) |
